These sequences were tested on MS2 coat protein (assay: apparent KD of MS2 coat protein; higher = weaker reporter binding). Conditions: Eterna round: R107; input ligand: arginine 13.2 mM.
Procedure, shortened: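 Apparent KD was obtained for each design as the median of normalised binding-curve fits over its clusters. RNA switches transcribed on-chip from Illumina sequencing clusters were titrated with SNAP-549-labelled MS2 coat protein (twofold steps, 0.7 or 1.5 nM to 3 µM) in 100 mM Tris-HCl pH 7.5, 80 mM KCl, 4 mM MgCl2, without or with constant ligand.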

Sequence	apparent KD of MS2 coat protein
GCACUACAUGAGGAUCACCCAUGUGCAGAUACCAGAGGUGUAUGCCUCCCUUGGCAGCUGAGUAGGUCUGGAGGGCUAUUGGUUU [Same State Theophylline A GF14]	17.8 nM
CCUAUGCAGUCGGCCGCCACUGAGUCCUCAAUAAUAAAUUAAUAUACAUGAGGAUCACCCAUGUACAGGACCGGGACUGUAUAGG [Ex Tryptophan B 13]	96.7 nM
AGCUCGCGAAAGCGAGCAACAUGAUCCGAAGGAGCGGGCGAAAGCCCAGGUAGGUCGCGGACAUGAGGAUCACCCAUGUCUCCUU [MAT - Exclusion Arginine A - Mod of Eli - D13]	41 nM
AGUGUAUCCAUCGAUACCAGCCACCACCGAUAGACCACAUGAGGAUCACCCAUGUUGGGUGGCCCUUGGCAGCGGUGGCUGUGUA [Same State - Theophylline B Attempt #2 (HarryS)]	57.5 nM
AGCAUGUUAUCAGAUACCAGACAUCUUUUAAUACAUAUUACAUGAGGAUCACCCAUGUUGGUCCCUUGGCAGCUGAAAUAUUUCA [JR_Nu_SSTheophyB_Sub023]	124 nM
UUGGGUUUGUGAAGGAGCGGGAAAGUUUUAUAGUGGAUCCUAACAUGAGGAUCACCCAUGUCCCAGGUAGGUCGCGCGGGUUUGG [12.R]	60.7 nM
ACAUUUAACUGAAGGAGCGUGAUAUACAUGAGGAUCACCCAUGUGUCUUACAUGAAUAAUUCACAGGUAGGUCGCAGACUAAUGA [JR_ExcArginiB_Sub009]	30.5 nM
ACGAACUGUAGUGAUACCAGACGUACAUGAGGAUCACCCAUGUUGUAAACAUGGUGAAUAGUCCCUUGGCAGCACAGUUAGUUCG [#11 Exclusion-TheophyllineB]	162 nM
GGGCACAUGAGGAUCACCCAUGUCCAACGGCGAGGACCGGUACGGCCGCCACUCGGUAUAAGCUUCGAAAAGGAGGAUCCUGCAG [theeternabot_sameState_MS2_Trp_A_35]	20.4 nM
UGUAUGUGAUCUGAUACCAGCUAGCGGAAACGCAAGCUUGAGGAUCACCCAAGUGGAAUAAGCCCUUGGCAGCAGAUCGCAUACU [Denovo 5 #StaticStem #AlternativeMS2]	215 nM
UUCAAAGGGAACGGUGCUGGUGACAGAGAUACCAGAGUAGUAAUACUCCCUUGGCAGCUCAGAACAUGAGGAUCACCCAUGUAAU [Exclusion Theophylline A GF22]	18.5 nM
UGUGGGCGCACGGCCGCCACUGUCUUCAUCUGUUUGUCUACAUGAGGAUCACCCAUGUUGGUUUACAGGACCGGGUGCAUCUAUG [SSTryp B #12]	39.5 nM
ACGAACGAUAGUGAUACCAGACGUACAUGAGGAUCACCCAUGUUGUAAACAUGGUUAAUAGUCCCUUGGCAGCACGAUAAGUUCG [JR_ExcTheophyB_Sub003]	104 nM
CCUGCGUUUCUUUUCUUUCGCAGGAAUGAUACCAGUAGGGAAACCUACCCUUGGCAGCAUGGGACAUGAGGAUCACCCAUGUUUU [SSThA NP+V+V2 #4]	117 nM
GUAGCGACGGCGGCCGCCACUCGCACGUGAGGGUAGACCAACCUUCACAUGAGGAUCACCCAUGUGAGGACCGGGCUGUCGCUAC [#15 Exclusion Tryptophan B]	17 nM
GAAUUUUAUUGAAGGAGCGUCGAAAAUGGGUAAACAUGAGGAUCACCCAUGUAAAGGGAACGACAGGUAGGUCGCAAUAGGAUUC [AstromonsSSArgB#28]	140 nM
UGUAUGUGAUUUGAUACCAGACCAGCUGGUGGUACAUGAGCAUCAGCCAUGUAGGUUUGGGUCCCUUGGCAGCAAAUCGCAUACU [SS Theo B #24 Ms2]	20.7 nM
UCGCAUUGCUGCGAUACCAGACAUGAGGAUCACCCAUGUACCAAGGUACGAAAAUAACAUGUCCCUUGGCAGCGCAGCAAUGCGU [MAT - Exclusion Theophlline B - Mod of Eli - D5]	11.9 nM

Sequence	apparent KD of MS2 coat protein
UUAUGCAGGUCGGCCGCCACUACACACAUGAGGAUCACCCAUGUAGUUACUGGGUGAAGUGGCAGUAGGACCGGGACCCGCACAU [Brourdmod21]	151 nM
UCGUGUAUUUCGGAUACCAGUGAAAUCGAUACAUGAGGAUCACCCAUGUGAGAGGAUGUACACCCUUGGCAGCUGUCUGUAUCUG [cxezmullin]	14.6 nM
UUAUUUAUAGGCGAUACCAGCCGAAUGGCCGCAAAUCCUAACAUGAGGAUCACCCAUGUCGGCCCUUGGCAGCGCCUAUGGGUUU [XTheo B #27]	114 nM
UAACGGCACUGAAGGAGCGAGUUGACAAACAUGAGGAUCACCCAUGUUAUGGGUUGUUAAUCUCAGGUAGGUCGCAGUUGUCGUA [Same State Arginine B GF 20]	129 nM
GCACAUGAGGAUCACCCAUGUACAACUGAAGGAGCGAGACAGAACUCAGGUAGGUCGCAGACUGCACAAUUGCGGACGACAUGGG [Exclusion Arginine A GF21]	25.8 nM
CUGGACAUGAGGAUCACCCAUGUAAAUCCUCGAGGACCGGUACGGCCGCCACUCGAACGAGUGGCACGCGAGUGCGCACUCGCGU [aLa]	26.9 nM
ACUAGUUGUGCAGAUACCAGACAUGAGGAUCACCCAUGUUUGGGAUCUUCGGAUCUUCCUGUCCCUUGGCAGCUGUACAUCUAGA [Omei Theo B Exc v3]	62.6 nM
ACAUUGCGCUCGGCCGCCACUGGCUAUAGAUUUAUAGCAUUAAUGAACAUGAGGAUCACCCAUGUCAGGACCGGGAGCGAACCAU [SSTryp B #8]	12.1 nM
GCUAGGUCUACGGCCGCCACUAGACGUGGGUAAGACAUGAGGAUCACCCAUGUACUACAGGCGGAUAGGACCGGGUAGACCUAGC [SSTB NP+V+V2 #13 +-Same Structure]	69.3 nM
CUGGACAUGAGGAUCACCCAUGUAAAUCCUCGAGGACCGGUACGGCCGCCACUCGAACGAGUGGCGCGCGAGCGCGCGCUCGCGC [aJa]	41.4 nM
AGAUGUAGCGGAAGGAGCGACUUGAGGAUCACCCAAGUCUCCCGUUGUGGGAGUUCCUUAGGUCAGGUAGGUCGCCGUUACGUCA [Omei Arg B SS B v3]	31.6 nM
UCUCAAGGCCGCUCGGUGCUCCCUGGUGAUACCAGCCAUAUAUCCGGCCCUUGGCAGCACAUGAGGAUCACCCAUGUAGCAGGCG [Sorimaat]	18 nM
UUAUAAGCACCUGAUACCAGUAUGAACCCGUACAUGAGGAUCACCCAUGUUAAUUUCUAUUACCCUUGGCAGCAGCCUUUUUCCU [theeternabot_sameState_MS2_Theo_B_2]	18.7 nM
UGUCCGUGAUCGGCCGCCACUCAACAAACCUGUGGAAACUGACAUGAGGAUCACCCAUGUUCUUGGAGGACCGGGAUUGCUUCGA [theeternabot_sameState_MS2_Trp_B_4]	16.7 nM
UUUACAUGAGGAUCACCCAUGUGCCAUGAUACCAGACAUGAAAAUGUCCCUUGGCAGCAUGAAUAAUCCUCGUCGGGAAACCGAC [Lisen]	110 nM
UGUAUGUGAUUUGAUACCAGAUCAGCUGGUUAUACAUGAGGAUCACCCAUGUUACUUUGGGUCCCUUGGCAGCAAAUCGCAUACU [SSTheo B #26]	165 nM
UUAAAUGUGACGGAUACCAGCGUGUUGUAGAACAUGAGGAUCACCCAUGUAGUGAUCAUGCGCCCUUGGCAGCUGGUAUGUUUGA [7.aA]	189 nM
AUCGUACCUGGUGAUACCAGCAAUUGCUCGUGACAUGAGGAUCACCCAUGUGACCAGUGAUGCCCUUGGCAGCAUGGUCGGUGCA [Same State - Theophylline B (Freestyle 23)]	36.8 nM

From the supplement of paper PMC9170038
